Assay [1] addresses T1, Human TROP2 ECD (31-274 AA), biotinylated (human, UniProt P09758 31-274, biotinylated (site not stated)).
T1 construct: also called tumor-associated calcium signal transducer 2; Human TROP2-biotin
T1 sequence: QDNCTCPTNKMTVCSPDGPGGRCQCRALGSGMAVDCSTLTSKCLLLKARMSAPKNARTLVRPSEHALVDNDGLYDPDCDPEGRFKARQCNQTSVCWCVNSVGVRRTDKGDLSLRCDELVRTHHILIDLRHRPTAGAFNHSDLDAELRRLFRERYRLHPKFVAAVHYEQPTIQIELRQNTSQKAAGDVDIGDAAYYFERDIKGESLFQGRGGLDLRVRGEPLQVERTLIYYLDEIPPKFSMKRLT
The assay is described as follows: ELISA on immobilized TROP2.

Assay [2] addresses T1, Human TROP2 ECD (31-274 AA), …. The assay is described as follows: ELISA on immobilized TROP2. This is another data set of the same source.
For assay [3] the target is unchanged. The assay is described as follows: ELISA on immobilized TROP2. The source holds these as a separate data set. (In general: ELISA stands for enzyme-linked immunosorbent assay.)
For assay [4] the target is unchanged. Kind of assay: ELISA: biotinylated TROP2 captured on neutravidin plate, Fab titrated, HRP secondary antibody.
For assay [5] the target is unchanged. The assay is described as follows: ELISA, biotinylated TROP2 ECD on neutravidin plate, Fab titrated.
Assay [6] has the same target. Kind of assay: ELISA, ratio of EC50 to that of TBD-1 wt.
Assay [7] concerns the target T2, TCE-20 (anti-CD3 scFv S110A; anti-TROP2 wt).
T2 construct: scFv on the Fab heavy chain; also called TCE-20 (S110A)
Kind of assay: competition ELISA, TCE on captured CD3.

Assay [8] addresses T3, TCE-14 (anti-CD3 scFv F104A; anti-TROP2 wt).
T3 construct: scFv on the Fab heavy chain; also called TCE-14 (F104A)
Kind of assay: competition ELISA, TCE on captured CD3.

Assay [9] concerns the target T4, TCE-10 (anti-CD3 scFv R100A; anti-TROP2 wt).
T4 construct: scFv on the Fab heavy chain; also called TCE-10 (R100A)
The assay is described as follows: competition ELISA, TCE on captured CD3.

Assay [10] addresses T5, TCE-11 (anti-CD3 scFv H101A; anti-TROP2 wt).
T5 construct: scFv on the Fab heavy chain; also called TCE-11 (H101A)
Kind of assay: competition ELISA, TCE on captured CD3.

Assay [11] has as its target T6, TCE-13 (anti-CD3 scFv N103A; anti-TROP2 wt).
T6 construct: scFv on the Fab heavy chain; also called TCE-13 (N103A)
The assay is described as follows: competition ELISA, TCE on captured CD3.

The target in assay [12] is T7, TCE-22 (anti-CD3 scFv W112A; anti-TROP2 wt).
T7 construct: scFv on the Fab heavy chain; also called TCE-22 (W112A)
The assay is described as follows: competition ELISA, TCE on captured CD3.

The target of assay [13] is T8, TCE-31 (anti-CD3 scFv W238A; anti-TROP2 wt).
T8 construct: scFv on the Fab heavy chain; also called TCE-31 (W238A)
The assay is described as follows: competition ELISA, TCE on captured CD3.

In assay [14] the target is T9, TCE-33 (anti-CD3 scFv F240A; anti-TROP2 wt).
T9 construct: scFv on the Fab heavy chain; also called TCE-33 (F240A)
The assay is described as follows: competition ELISA, TCE on captured CD3.

Assay [15] has as its target T10, TCE-1 (anti-CD3 scFv wt; anti-TROP2 Fab wt).
T10 construct: anti-CD3 scFv fused to the N-terminus of the anti-TROP2 Fab heavy chain; also called TCE-1 (wt)
The assay is described as follows: competition ELISA: peptide titrated and pre-incubated with a constant concentration of TCE-1, binding of TCE-1 to plate-bound biotinylated CD3 detected.

The target in a further assay is T11, TBD-1 wt.
T11 construct: Fab; the heavy chain entry is VH-CH1; also called wild-type anti-TROP2 Fab (hRS7); TROP2 Fab
The assay is described as follows: competition ELISA: peptide titrated and pre-incubated with a constant concentration of TBD-1, then added to plate-bound biotinylated TROP2; blocked ligand TROP2 (2.m7).

A further assay deals with T12, Human TROP2 Full length (human, UniProt P09758 31-323).
T12 sequence: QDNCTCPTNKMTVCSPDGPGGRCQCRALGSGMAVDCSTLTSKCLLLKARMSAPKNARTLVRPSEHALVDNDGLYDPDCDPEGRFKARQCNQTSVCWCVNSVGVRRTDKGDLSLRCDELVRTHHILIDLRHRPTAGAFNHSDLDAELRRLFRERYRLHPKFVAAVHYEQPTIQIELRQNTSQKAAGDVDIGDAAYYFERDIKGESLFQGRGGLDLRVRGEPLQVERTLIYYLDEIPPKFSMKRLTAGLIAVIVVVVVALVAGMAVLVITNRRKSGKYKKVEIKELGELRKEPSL
Kind of assay: cell-based or functional assay.

Changes are numbered by the printed parent chain. Numbers in names are those of the source. Where no end group is shown, it is not given here.

As a reminder, the EC50 is the concentration needed to bring the measured effect to its halfway point. A higher EC50 goes with lower potency in that assay. By IC50 is commonly meant the concentration needed to halve the response being measured.

B1: PC-6 (bispecific antibody)
light: GGVDFCGLYHWPICYQGGGGSGGLSGRSDAGSPLGLAGSGGSDIQLTQSPSSLSASVGDRVSITCKASQDVSIAVAWYQQKPGKAPKLLIYSASYRYTGVPDRFSGSGSGTDFTLTISSLQPEDFAVYYCQQHYITPLTFGAGTKVEIKRTVAAPSVFIFPPSDEQLKSGTASVVCLLNNFYPREAKVQWKVDNALQSGNSQESVTEQDSKDSTYSLSSTLTLSKADYEKHKVYACEVTHQGLSSPVTKSFNRGEC
heavy: not shown
notes: anti-TROP2 wt
In the case of B1, the EC50 stood at 32.9 nM in assay [1] and 16.6 nM in [2].

B2: PC-28 (bispecific antibody)
light: B1 light with V3I, G7M, H10N, Y15A, Q16G
heavy: not shown
notes: anti-TROP2 wt
On to B2, for which the EC50 in assay [2] amounted to 25 nM.

B3: PC-29 (bispecific antibody)
light: B1 light
heavy: not shown
notes: anti-TROP2 wt
B3 returned an EC50 in [2] of 16.3 nM.

B4: PC-5 (bispecific antibody)
light: B1 light with V3I, G7M, H10N, Y15A, Q16G
heavy: not shown
notes: anti-TROP2 wt
Consider B4, for which the EC50 in assay [1] amounted to 24.5 nM; in assay [2], 9.15 nM.

B5: PC-11 (bispecific antibody)
light: not shown
heavy: GGVDFCGLYHWPICYQGGGGSSGGSAAGLLAPPGGLSGRSDAGGGGSQVQLQQSGSELKKPGASVKVSCKASGYTFTNYGMNWVKQAPGQGLKWMGWINTYTGEPTYTDDFKGRFAFSLDTSVSTAYLQISSLKADDTAVYFCARGGFGSSYWYFAVWGQGSLVTVSSASTKGPSVFPLAPSSKSTSGGTAALGCLVKDYFPEPVTVSWNSGALTSGVHTFPAVLQSSGLYSLSSVVTVPSSSLGTQTYICNVNHKPSNTKVDKKVEPKSC
notes: anti-TROP2 D109A
As for B5, it took 379 nM to reach a half-maximal effect in assay [3] (EC50).

B6: TBD-18 (anti-TROP2 Fab, HC Y105A) (Fab, V domains shown)
VH: QVQLQQSGSELKKPGASVKVSCKASGYTFTNYGMNWVKQAPGQGLKWMGWINTYTGEPTYTDDFKGRFAFSLDTSVSTAYLQISSLKADDTAVYFCARGGFGSSAWYFDVWGQGSLVTVSS
VL: DIQLTQSPSSLSASVGDRVSITCKASQDVSIAVAWYQQKPGKAPKLLIYSASYRYTGVPDRFSGSGSGTDFTLTISSLQPEDFAVYYCQQHYITPLTFGAGTKVEIKR
For the molecule B6, the EC50 in [4] and in [5] was 801 nM in each case. Besides, in [6], the “Fold shift in EC50 relative to wt” value was found to be 4000 fold.

B7: Peptide-74 (peptide)
peptide: ASQCLGPEWEVCPY
modifications: cysteine pairing not given here; also: biotinylated, site not given here
notes: mask peptide for the CD3 scFv
As to B7, the IC50 in assay [7] worked out at 86.6 µM; in [8], 2470 nM; in assay [9], 16.1 µM; in assay [10], 1110 nM; in [11], 10.6 µM; in assay [12], 75.4 µM. The IC50 in assay [13] amounted to 33.8 µM; in [14], 3080 nM. The binding result in [15] is “binds”.

B8: Peptide-16 (peptide)
peptide: IDFCLLYDWPVCAS
As to B8, the “IC50 (read off the curve)” value with TBD-1 wt is ~3 µM.

B9: Peptide-67 (peptide)
peptide: VYCGPEFDESVGCM
modifications: cysteine pairing not given here; also: biotinylated, site not given here
notes: mask peptide for the CD3 scFv
Take B9: the IC50 in [7] stood at 1.32 µM; in [8], 240 nM; in assay [9], 18.6 µM; in [10], 2820 nM; in [11], 3.36 µM; in assay [12], 38.5 µM. For the same molecule, the IC50 in assay [13] was 21.6 µM; in assay [14], 1250 nM. The binding result in [15] is “binds”.

B10: Peptide-72 (peptide)
peptide: AYCGPEFDESVGCM
modifications: cysteine pairing not given here; also: biotinylated, site not given here
notes: mask peptide for the CD3 scFv
Turning to B10, the IC50 in [7] turned out to be 3.65 µM; in assay [8], 320 nM; in assay [9], 45.6 µM; in assay [10], 790 nM; in assay [11], 3.96 µM; in assay [12], 40.2 µM. Also, the IC50 is 29.9 µM in assay [13] and 2700 nM in assay [14]. Besides, in assay [15], the “IC50 (read off the curve)” value was ~0.3 µM.

B11: TCE-39 (bispecific antibody)
light: DIQLTQSPSSLSASVGDRVSITCKASQDVSIAVAWYQQKPGKAPKLLIYSASYRYTGVPDRFSGSGSGTDFTLTISSLQPEDFAVYYCQQHYITPLTFGAGTKVEIKRTVAAPSVFIFPPSDEQLKSGTASVVCLLNNFYPREAKVQWKVDNALQSGNSQESVTEQDSKDSTYSLSSTLTLSKADYEKHKVYACEVTHQGLSSPVTKSFNRGEC
heavy: EVQLVESGGGLVQPGGSLKLSCAASGFTFNKYAMNWVRQASGKGLEWVGRIRSKYNNYATYYADSVKDRFTISRDDSKNTAYLQMNSLKTEDTAVYYCVRHGNFGNSYISYWAYWGQGTLVTVSSGGGGSGGGGSGGGGSQTVVTQEPSFSVSPGGTVTLTCRSSTGAVTSGNYANWVQQTPGQAPRGLIGGTKFLAPGVPDRFSGSILGNKAALTITGAQADDESDYYCVLWYSNRWVFGGGTKLTVLGGGGSQVQLQQSGSELKKPGASVKVSCKASGYTFTNYGMNWVKQAPGQGLKWMGWINTYTGEPTYTDDFKGRFAFSLDTSVSTAYLQISSLKADDTAVYFCARGGFGSSYWYADVWGQGSLVTVSSASTKGPSVFPLAPSSKSTSGGTAALGCLVKDYFPEPVTVSWNSGALTSGVHTFPAVLQSSGLYSLSSVVTVPSSSLGTQTYICNVNHKPSNTKVDKKVEPKSC
With B11, in the assay with Human TROP2 Full length, the “HCT116 Cytotoxicity EC50 (pM)” value came out at 73.2 pM.

B12: TCE-49 (bispecific antibody)
light: B11 light
heavy: not shown
For the molecule B12, in the assay with Human TROP2 Full length, the “H292 Cytotoxicity EC50 (pM)” value turned out to be 3.9 pM.

B13: TCE-2 (bispecific antibody)
light: not shown
heavy: QVQLQQSGSELKKPGASVKVSCKASGYTFTNYGMNWVKQAPGQGLKWMGWINTYTGEPTYTDDFKGRFAFSLDTSVSTAYLQISSLKADDTAVYFCARGGFGSSYWYFDVWGQGSLVTVSSASTKGPSVFPLAPSSKSTSGGTAALGCLVKDYFPEPVTVSWNSGALTSGVHTFPAVLQSSGLYSLSSVVTVPSSSLGTQTYICNVNHKPSNTKVDKKVEPKSC
In turn, B13 yielded an EC50 in assay [1] of 0.13 nM.

B14: PC-7 (bispecific antibody)
light: not shown
heavy: GGVDFCGLYHWPICYQGGGGSGGLSGRSDAGSPLGLAGSGGSQVQLQQSGSELKKPGASVKVSCKASGYTFTNYGMNWVKQAPGQGLKWMGWINTYTGEPTYTDDFKGRFAFSLDTSVSTAYLQISSLKADDTAVYFCARGGFGSSYWYFDVWGQGSLVTVSSASTKGPSVFPLAPSSKSTSGGTAALGCLVKDYFPEPVTVSWNSGALTSGVHTFPAVLQSSGLYSLSSVVTVPSSSLGTQTYICNVNHKPSNTKVDKKVEPKSC
notes: anti-TROP2 wt
As to B14, a half-maximal effect in assay [1] (EC50) was put at 24.6 nM.

The values above are taken from patent publication US20230357429A1 (JANUX THERAPEUTICS, published 2023).
